Test results published in patent US20250109177A1, “EVOLVED PROTEIN DEGRONS” (The Broad Institute, Inc., priority 2022, published 2025).

How the values were obtained:
[1] = test system: CRBN C-terminal domain (CTD); assay: CRBN-CTD MG-PACE circuit transcriptional activation (luminescence); format: cell-based, human; conditions: at 50 μM PT-179
degron-tagged eGFP = assay: Flow-based degradation assay, Degron-eGFP-IRES-mCherry in HEK293T cells; format: cell-based, human; conditions: HEK293T, overnight PT-179 treatment
Protocol: A flow-based degradation assay was then performed using a stably transduced Degron-eGFP-IRES-mCherry construct in HEK 293T cells to determine the ability of the evolved degrons to […] (see FIG. 7). Concentration of PT-179 is shown on the x-axis. Degrons indicated in the key were fused to the N-terminus of eGFP allowing measurement of eGFP:mCherry ratios for assessing degradation.
To characterize the evolved degrons, stable HEK293T cell lines expressing degron-tagged eGFP were generated (FIG. 19A). […] The final variant, SD36, potently degraded GFP in response to PT-179 (DC50=14 nM).

degron-tagged eGFP, sequence (Q96SW2 24-442 limits assumed): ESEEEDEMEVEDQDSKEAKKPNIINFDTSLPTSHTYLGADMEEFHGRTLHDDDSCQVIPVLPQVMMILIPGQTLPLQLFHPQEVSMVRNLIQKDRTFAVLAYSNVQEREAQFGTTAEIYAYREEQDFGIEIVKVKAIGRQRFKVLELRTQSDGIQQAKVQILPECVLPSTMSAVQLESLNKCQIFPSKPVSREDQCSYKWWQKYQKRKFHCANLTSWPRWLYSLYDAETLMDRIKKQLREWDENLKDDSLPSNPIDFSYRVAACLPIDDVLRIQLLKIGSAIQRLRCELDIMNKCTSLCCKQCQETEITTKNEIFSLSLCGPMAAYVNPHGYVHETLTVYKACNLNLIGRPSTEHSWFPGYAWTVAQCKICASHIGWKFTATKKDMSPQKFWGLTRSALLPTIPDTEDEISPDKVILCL

B1: SD20: Evolved degron SEQ ID NO: 21: S10R E14D P16L E20K Q28E E42V P44T F45V R57K D58R A59C L60F *61VI (protein)
chain: FNVLMVHKRRHTGDRLLQCKICGFTCREKGNLLRHIKLHTGVKTVKCHLCNYACQRKRCFVI
- luciferase expression, activation [1]: 24 fold
- GFP degradation in response to PT-179 (degron-tagged eGFP): did not trigger GFP degradation
